Here are results for one protein from paper PMC12582304, “Asymmetric gating of a homopentameric ion channel GLIC revealed by cryo-EM” (Proceedings of the National Academy of Sciences of the …, 2025).

This data set concerns the molecule itself. Kind of data set: cryo-EM structure; nanodisc-reconstituted GLIC-WT at pH 4.0; earlier dataset (ref. 44) reprocessed with symmetry expansion, focused classification and particle reorientation; C5 or no symmetry imposed.

B1: Gloeobacter violaceus proton-gated ion channel (GLIC), wild type (natural protein)
chain: VSPPPPIADEPLTVNTGIYLIECYSLDDKAETFKVNAFLSLSWKDRRLAFDPVRSGVRVKTYEPEAIWIPEIRFVNVENARDADVVDISVSPDGTVQYLERFSARVLSPLDFRRYPFDSQTLHIYLIVRSVDTRNIVLAVDLEKVGKNDDVFLTGWDIESFTAVVKPANFALEDRLESKLDYQLRISRQYFSYIPNIILPMLFILFISWTAFWSTSYEANVTLVVSTLIAHIAFNILVETNLPKTPYMTYTGAIIFMIYLFYFVAVIEVTVQHYLKVESQPARAASITRASRIAFPVVFLLANIILAFLFFG
notes: GLIC, proton-gated pentameric ligand-gated ion channel of Gloeobacter violaceus; Homopentamer in DOPE/POPC/POPS nanodiscs; As I recall, the construct is the mature channel without its signal peptide, about 317 residues; also called GLIC-WT; WT; source: E. coli C41, purified (amylose resin, SEC), nanodisc-reconstituted
Regarding B1, the “stoichiometry N” value turned out to be 5.
